Ends that are not written are not given here.
Experiments:
[1] = target: T1, native zeta-chain from the lysate of CD8+ T-lymphocytes (human, UniProt P20963 22-164); assay: sandwich ELISA: zeta-chain from lysate captured by the antibody to amino acids 144-163, 2-B-5 at 1 ug/ml
T1 construct: Endogenous protein in a detergent lysate, captured on the plate by an antibody to the C-terminus; also called zeta-chain molecules from the T-cell lysate
Procedure: FIG. 4: Results of a Sandwich-ELISA confirming the reactivity of antibody 2-B-5 with native zeta-chain present in the lysate of the CD8⁺-T-cell lymphocytes. A zeta-chain specific antibody, which recognizes the amino acids 144-163 at the carboxy-terminus of the human zeta chain was coated for 12 hours to the wells of a 96 U-bottom plate, followed by blockade for one hour at room temperature with PBS/3% BSA. Subsequently the lysate of CD8⁺-cells was added undiluted and in several dilutions and incubated for one hour at room temperature. As negative control, the wells were incubated with PBS instead of the cell lysate. […] Bound 2-B-5 antibody was detected with a biotinylated mouse-anti-rat IgM antibody followed by an Avidin-peroxidase-conjugate. […] The colored precipitate was measured at 405 nm using an ELISA-reader.
A zeta-chain specific antibody (Santa Cruz Biotechnology, Cat-No 1124), which recognizes the amino acids 144-163 at the carboxy-terminus of the zeta chain was coated to wells of a 96 U-bottom plate (Nunc, maxisorb) at a concentration of 5 μg/ml. […] Bound 2-B-5 antibody was detected with a biotinylated mouse-anti-rat IgM antibody (Zymed, San Francisco, Calif., USA; Cat-No 03-9840; working concentration 400 ng/ml) followed by an Avidin-peroxidase-conjugate (Dako, Hamburg; Code-No P 03347; working concentration 1 μg/ml). […]

[2] = target: T2, zeta-peptide-BSA-conjugate (not fully specified (residue 11); also: C-terminal Cys thiol coupled to BSA); assay: ELISA of rat hybridoma supernatants (diluted 1:1) on immobilized zeta-peptide-BSA-conjugate
T2 construct: also called zeta-peptide conjugated to bovine serum albumin
T2 peptide: QSFGLLDPKLC

[3] = target: T3, human zeta-chain on the surface of CD8+ T-lymphocytes and NK-cells (human, UniProt P20963 22-164); assay: flow cytometry on human PBMC gated for CD8+ T-lymphocytes and NK-cells
T3 construct: whole, on cells; also called extracellular domain of the human zeta-chain on intact cells
T3 sequence (P20963 22-164): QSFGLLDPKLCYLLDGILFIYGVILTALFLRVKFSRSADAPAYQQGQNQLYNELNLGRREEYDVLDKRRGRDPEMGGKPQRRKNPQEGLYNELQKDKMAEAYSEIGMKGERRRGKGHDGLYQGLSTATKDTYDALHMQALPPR
Procedure: FIG. 3: Flowcytometry-analysis of the zeta-chain specific binding activity of the 2-B-5 antibody on the surface of CD8⁺-T-lymphocytes and NK-cells. 100.000 mononucleated cells from peripheral blood of two different healthy donors were incubated with undiluted cell culture supernatant of the 2-B-5 hybridoma. Bound zeta-chain specific rat antibody was detected by a fluorescein (FITC) conjugated goat-anti-rat Ig (IgG+IgM) antibody diluted 1:100 in PBS. Triple color fluorescence analysis was carried out by applying a positive gate for CD8⁺ (Tricolor) and a negative gate for CD16⁺ (PE) cells thus allowing the detection of FITC-mediated fluorescence (filled lines) exclusively attributed to CD8⁺-T-lymphocytes (phenotype: CD8⁺, CD16⁻) without any contaminating signals from CD8⁺-NK-cells. Similarly, triple color fluorescence analysis was carried out by applying a positive gate for CD56⁺-(PE) and a negative gate for CD3⁺-cells (tricolor) thus allowing the detection of FITC-mediated fluorescence (filled lines) exclusively attributed to NK-cells (phenotype: CD56⁺, CD3⁻) without any contaminating signals from CD56⁺-T-lymphocytes. As isotype control (broken lines) culture supernatant of an antibody with the same isotype (rat IgM) but irrelevant specificity was used. […] Cells were analyzed by flowcytometry on a FACS-scan (Becton Dickinson).

Measured: binding result

T1 sequence (P20963 22-164 limits assumed): as the sequence (P20963 22-164) above

B1: rat monoclonal anti-zeta-chain antibody 2-B-5 (rat IgM) (antibody, V domains shown)
VH: QVQLQQSGAELVKPGSSVKISCKASGYTFTSYDMHWIKQQPGNGLEWIGWIYPGNGNTKYNQKFNGKATLTADKSSSTAYMQLSSLTSEDSAVYFCARDWHYYSSYIRPFAYWGQGTLVTVSS
VL: DIQMTQSPASLSASPEEIVTITCQASQDIGNWLAWYQQKPGKSPQLLIYSATSLADGIPSRFSGSRSGTQYSLKISRLQVEDTGIYYCLQRYSNPNTFGAGTKLELK
notes: Rat IgM with kappa light chain; Used as hybridoma culture supernatant or purified by ion exchange chromatography; The constant regions are rat mu and kappa; also called 2-B-S; 2-B-5 hybridoma antibody
binds: [1] | [2] | [3]

Reference: patent US20050163770A1 (CONNEX, published 2005)
